pKd: −log10 of the molar value.
What was measured:
Experiment in all cases: SPR (Biacore T200), p75NTR-Fc captured on Protein A, neurotrophin injected
[1] = molecular target: T1, BDNF
T1 sequence (P23560 19-247, species assumed, looked up): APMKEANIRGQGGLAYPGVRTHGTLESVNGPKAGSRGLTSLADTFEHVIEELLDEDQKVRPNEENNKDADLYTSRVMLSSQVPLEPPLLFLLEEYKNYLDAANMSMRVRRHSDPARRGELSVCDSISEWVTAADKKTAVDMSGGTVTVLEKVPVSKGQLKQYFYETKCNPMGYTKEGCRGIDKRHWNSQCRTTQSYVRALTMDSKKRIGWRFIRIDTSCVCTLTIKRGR

[2] = molecular target: NGF
[3] = molecular target: NT-3
[4] = molecular target: T2, NT-4
T2 sequence (P34130 81-210, species assumed, looked up): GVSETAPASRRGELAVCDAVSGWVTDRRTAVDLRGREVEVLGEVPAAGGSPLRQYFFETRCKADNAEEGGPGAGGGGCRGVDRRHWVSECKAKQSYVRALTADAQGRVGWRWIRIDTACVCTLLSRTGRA

p75NTR-Fc (Fc fusion), sequence (chain): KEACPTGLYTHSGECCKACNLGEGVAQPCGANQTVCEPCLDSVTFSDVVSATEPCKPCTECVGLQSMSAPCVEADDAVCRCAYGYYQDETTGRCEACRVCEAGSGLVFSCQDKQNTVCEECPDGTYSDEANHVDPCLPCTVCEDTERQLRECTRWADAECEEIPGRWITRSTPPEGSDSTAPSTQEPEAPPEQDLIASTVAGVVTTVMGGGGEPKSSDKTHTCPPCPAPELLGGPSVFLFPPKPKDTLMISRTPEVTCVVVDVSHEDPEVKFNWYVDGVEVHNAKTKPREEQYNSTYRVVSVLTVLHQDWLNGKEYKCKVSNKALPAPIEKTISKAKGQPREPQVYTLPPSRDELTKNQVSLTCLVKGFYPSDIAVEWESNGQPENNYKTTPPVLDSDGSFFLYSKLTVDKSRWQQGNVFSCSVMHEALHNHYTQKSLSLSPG
NGF, sequence (P01138 122-241): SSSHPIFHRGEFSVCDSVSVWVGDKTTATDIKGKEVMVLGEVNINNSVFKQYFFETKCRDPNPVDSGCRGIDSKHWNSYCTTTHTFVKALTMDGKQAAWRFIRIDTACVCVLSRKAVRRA

## p75NTR-Fc (Fc fusion)
[1]
  pKd: 10.38
[2]
  pKd: 9.26
[3]
  pKd: 10.85
[4]
  pKd: 9.74

Reference: US20230093211A1
